Read-outs that look alike come from different tables or passages of the source.
How the values were obtained:
ErIA-actin = molecular target: T1, ErIA-actin (Oryctolagus cuniculus, UniProt P68135); test: Transient phosphorescence anisotropy (TPA) of ErIA-actin alone; type: biochemical, rabbit; settings: concentration not given
T1 construct: Actin was prepared from rabbit skeletal muscle by extracting acetone powder; from tissue; host or cells: rabbit skeletal muscle (acetone powder)
Method: […] These were added together with glucose catalase/oxidase to prevent photobleaching, and TPA was performed at 25 °C to determine anisotropy values ([7]).

ErIA-actin + C0-C2 = molecular target: T2, ErIA-actin + C0-C2 (Homo sapiens, UniProt Q14896); test: Transient phosphorescence anisotropy (TPA) of ErIA-actin with C0-C2; type: biochemical; settings: 1 μM ErIA-actin, 2 μM C0-C2; actin alone 0.033 ± 0.001
T2 construct: N-terminal domains C0 through C2 (C0-C2), containing the proline/alanine-rich linker (P/A) and the M-domain (M); 6x His (N, cleaved yes); TEV protease cleavage site (N, cleaved yes); made in house; host or cells: E. coli BL21DE3 (C0-C2); actin purified from rabbit skeletal muscle
T2 sequence (Q14896 1-451 limits assumed): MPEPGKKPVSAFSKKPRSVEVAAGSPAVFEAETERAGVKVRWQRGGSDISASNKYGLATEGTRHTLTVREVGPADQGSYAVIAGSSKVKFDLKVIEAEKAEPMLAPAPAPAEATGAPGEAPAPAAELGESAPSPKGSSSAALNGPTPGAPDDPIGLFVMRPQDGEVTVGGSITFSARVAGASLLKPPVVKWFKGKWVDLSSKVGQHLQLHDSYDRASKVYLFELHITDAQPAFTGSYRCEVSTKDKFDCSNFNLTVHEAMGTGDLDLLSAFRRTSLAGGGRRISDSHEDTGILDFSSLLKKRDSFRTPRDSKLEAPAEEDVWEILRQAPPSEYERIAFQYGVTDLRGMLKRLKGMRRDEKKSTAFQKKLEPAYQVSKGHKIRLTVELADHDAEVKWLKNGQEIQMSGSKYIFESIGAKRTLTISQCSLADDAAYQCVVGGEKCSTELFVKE
Method: The same mixtures were tested in the presence of 2 μM C0-C2. These were added together with glucose catalase/oxidase to prevent photobleaching, and TPA was performed at 25 °C to determine anisotropy values ([7]).

[1] = molecular target: FMAL-actin (F-actin from rabbit skeletal muscle labeled at Cys-374 with fluorescein-5-maleimide) (rabbit) (UniProt P68135); test: FRET or BRET; TR-FRET; 1 μM F-actin labeled (to 10%) with FMAL (donor) with 0-20 μM TMR-C0-C2^Cys225 (acceptor) ±PKA; M-ABB
[2] = molecular target: FMAL-actin (F-actin from rabbit skeletal muscle labeled at Cys-374 with fluorescein-5-maleimide) (rabbit) (UniProt P68135); test: as above; remark: listed apart in the source

O=C(NCCO)c1cccc(-c2cc(Nc3ccc(OC(F)(F)F)cc3)ncn2)c1 [GNF-5]
effect on actin anisotropy (TPA), control compound (ErIA-actin): does bind actin and changes its anisotropy

C0-C2: recombinant N-terminal fragment (domains C0 through C2) of human cMyBP-C
actin's final anisotropy in the presence of C0-C2 (ErIA-actin + C0-C2): 0.071 ± 0.003

TMR-C0-C2^Cys225 phosphorylated by PKA (from UniProt Q14896 1-1274) (domain or fragment)
Kd [1]: 3 µM
Kd [2]: 8 µM

Source: PMC8233204, “Cardiac myosin-binding protein C interaction with actin is inhibited by compounds identified in a high-throughput fluorescence lifetime screen” (The Journal of Biological Chemistry, 2021)
